# Data from IntAct's records for PubMed 9311911.
# B1: Protein STE5 (Saccharomyces cerevisiae), P32917 (parent)
# chain: MMETPTDNIVSPFHNFGSSTQYSGTLSRTPNQIIELEKPSTLSPLSRGKKWTEKLARFQRSSAKKKRFSPSPISSSTFSFSPKSRVTSSNSSGNEDGNLMNTPSTVSTDYLPQHPHRTSSLPRPNSNLFHASNSNLSRANEPPRAENLSDNIPPKVAPFGYPIQRTSIKKSFLNASCTLCDEPISNRRKGEKIIELACGHLSHQECLIISFGTTSKADVRALFPFCTKCKKDTNKAVQCIPENDELKDILISDFLIHKIPDSELSITPQSRFPPYSPLLPPFGLSYTPVERQTIYSQAPSLNPNLILAAPPKERNQIPQKKSNYTFLHSPLGHRRIPSGANSILADTSVALSANDSISAVSNSVRAKDDETKTTLPLLRSYFIQILLNNFQEELQDWRIDGDYGLLRLVDKLMISKDGQRYIQCWCFLFEDAFVIAEVDNDVDVLEIRLKNLEVFTPIANLRMTTLEASVLKCTLNKQHCADLSDLYIVQNINSDESTTVQKWISGILNQDFVFNEDNITSTLPILPIIKNFSKDVGNGRHETSTFLGLINPNKVVEVGNVHDNDTVIIRRGFTLNSGECSRQSTVDSIQSVLTTISSILSLKREKPDNLAIILQIDFTKLKEEDSLIVVYNSLKALTIKFARLQFCFVDRNNYVLDYGSVLHKIDSLDSISNLKSKSSSTQFSPIWLKNTLYPENIHEHLGIVAVSNSNMEAKKSILFQDYRCFTSFGRRRPNELKIKVGYLNVDYSDKIDELVEASSWTFVLETLCYSFGLSFDEHDDDDEEDNDDSTDNELDNSSGSLSDAESTTTIHIDSPFDNENATANMVNDRNLLTEGEHSNIENLETVASSVQPALIPNIRFSLHSEEEGTNENENENDMPVLLLSDMDKGIDGITRRSSFSSLIESGNNNCPLHMDYI
# partner: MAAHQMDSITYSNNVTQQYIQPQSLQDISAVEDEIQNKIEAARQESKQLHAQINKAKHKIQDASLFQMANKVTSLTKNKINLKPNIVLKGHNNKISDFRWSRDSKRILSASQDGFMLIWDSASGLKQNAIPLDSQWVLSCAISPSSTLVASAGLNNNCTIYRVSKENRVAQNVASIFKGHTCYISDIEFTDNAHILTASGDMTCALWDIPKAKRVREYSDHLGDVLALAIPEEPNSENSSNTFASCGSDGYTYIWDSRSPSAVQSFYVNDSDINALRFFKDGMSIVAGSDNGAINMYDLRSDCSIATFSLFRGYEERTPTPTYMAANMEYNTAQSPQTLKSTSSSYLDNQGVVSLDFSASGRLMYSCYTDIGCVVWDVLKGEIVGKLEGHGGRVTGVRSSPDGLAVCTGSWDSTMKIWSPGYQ
# Variants of: B1
# Conditions: with gbb_yeast STE4, P18851
row,effect of a mutation on the interaction,Variant
1,disrupting interaction,C177A;C180A
